System: MS2 coat protein
Test: apparent KD of MS2 coat protein; designed switch direction (-1 OFF switch, 1 ON switch): -1; higher = weaker reporter binding
Outline: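 Each step of the titration lasted 0.8–1.5 h at the lowest concentration and 10–20 min at the highest. The protein, SNAP-549-labelled MS2 coat protein, went from 0.7 or 1.5 nM doubling to 3 µM over RNA switches transcribed on Illumina chips by stalled E. coli RNA polymerase. Normalised cluster fluorescence was curve-fitted, and the per-design median over clusters is given as apparent KD.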

[1] = Eterna round: R95, input ligand: microRNA oligo, concentration not stated
[2] = Eterna round: R95, input ligand: FMN 200 uM
[3] = Eterna round: R95, input ligand: none
[4] = input ligand: microRNA oligo, concentration not stated

Sequence	apparent KD of MS2 coat protein [1]	apparent KD of MS2 coat protein (input ligand: FMN 200 uM)	apparent KD of MS2 coat protein (input ligand: none)	further results
CCAGCGUAUGUGAGGAUAUGCUGGUCCUUGGAUCAGCAGAAGGCACAUGAGGAUCACCCAUGUGAGAACGUUGG [JL bmx4 3.38] (puzzle: Brourd's mod of Exclusion 4)	0.0246 µM	–	–	–
CCAGCGUAUGUGAGGAUAUGCUGGUCCUUGGAUCAGCAGAAGGCACAUGAGGAUCACCCAUGUGGAGACGUUGG [JL bmx4 3.42] (puzzle: Brourd's mod of Exclusion 4)	0.018 µM	–	–	–
CCAGCGUAUGUGAGGAUAUGCUGGUCCUUGGAUCAGCAGAAGGCACAUGAGGAUCACCCAUGUGGUGACGUUGG [JL bmx4 3.44] (puzzle: Brourd's mod of Exclusion 4)	0.143 µM	–	–	apparent KD of MS2 coat protein [2]: 0.0191 µM; apparent KD of MS2 coat protein [3]: 0.411 µM
CCAGGCGUCUUGGCUCGUCUUAUUUGGAGAGGAUUGAUAACAUGAGGAUCACCCAUGUGUGUGGGAGAGUUGCAGUG [JR_SV3TOV2_Sub018] (puzzle: Sensor v3, turn-off variant 2)	0.425 µM	–	–	apparent KD of MS2 coat protein [2]: 0.335 µM; apparent KD of MS2 coat protein [3]: 0.373 µM
CCAGGCUGUGUGAGGAUAUGCUGGUCCUUGGAUCAGCAGAAGGCACAUGAGGAUCACCCAUGUGAGUAGCUUGG [JL bmx4 3.27] (puzzle: Brourd's mod of Exclusion 4)	0.0157 µM	–	–	–
CCAUACUGUAAGCUUCCCAACAUGAGGAUCACCCAUGUGGACCACGGCUUCGGUCAGCUAACCUGCUCGUCGUUGAU [Eternabot (L2) Solution 31] (Eterna round: R97, puzzle: Sensor, turn-off variant 1)	–	0.0152 µM	0.0169 µM	–
CCAUCACAUGAGGAUCACCCAUGUCAGGAUAUCUCAGUGCAUCCACACGGACGCAUCAAGAGAAGGGACAAAAC [Vinxlusion 4 - Jieux - Exclusion 1] (Eterna round: R97, puzzle: Exclusion 1)	–	0.0359 µM	0.0348 µM	–
CCAUCGAGUGUGAGGAUAUGCUGGUCCUUGGAUCAGCAGAAGGCACAUGAGGAUCACCCAUGUGAAUACGGUGG [JL bmx4 3.20] (puzzle: Brourd's mod of Exclusion 4)	0.0283 µM	–	–	–
CCAUUCAGAGGAUAUGCGAAUAAAUAAAACUUUUUUUUUUAACAUGAGGAUCACCCAUGUAGAAGGCUGUAACC [Ex2 #44] (Eterna round: R97, puzzle: Exclusion 2)	–	0.0314 µM	0.0276 µM	–
CCCAACGUAACAGGAUAUGCUGUUGAGGCCGGGCGACCUACAUGAGGAUCACCCAUGUCGAAAUGGCAGAAGGGUUGCCGGGUA [Quatin] (Eterna round: R96, puzzle: Exclusion NG 2)	–	0.315 µM	0.0944 µM	apparent KD of MS2 coat protein [4]: 0.0619 µM
CCCAGUUAGUGAGGAUAUCCUACAUGAGGAUCACCCAUGUAAUAAAUGAGGAUUUCGGGUGUCUAGGAGAAGGCACGGAUAGGC [Ostracism 24 - Jieux - Exclusion NG 2] (Eterna round: R96, puzzle: Exclusion NG 2)	–	0.0793 µM	0.0448 µM	apparent KD of MS2 coat protein [4]: 0.036 µM
CCCGGGAGUCAGGAUAUCUCCGAGGAGUAUCAGAGAGAAGGGACUACUUGAGGAUCACCCAAGUAGGUGUAAAA [Enleteerre] (Eterna round: R97, puzzle: Exclusion 6)	–	0.0288 µM	0.0202 µM	–
CCCGGGCCUGUGAGGAUAUGUUUGGGUAAACCCGGGCAGAAGGCACAUGAGGAUCACCCAUGUAAGGGUUUGGG [-29.6, -27.5 kcal, A 23%, 5bbis-5bbis] (Eterna round: R97, puzzle: Brourd's mod of Exclusion 4)	–	0.0226 µM	0.0345 µM	–
CCCGUACAUGAGGAUCACCCAUGUCAGGAUAUCUAAUCAUGCUGUAAGGCACAUUGAGGGAGAAGGGACAUAUU [EX1 B.29] (Eterna round: R97, puzzle: Exclusion 1)	–	0.0324 µM	0.0208 µM	–
CCCGUGUAAGGAUAUCGUUCACUUGACAAAAGUCAAGUGAACGAGAAGGUACAUGAGGAUCACCCAUGUACGGG [-33.8, -33.4 kcal, A 32%] (Eterna round: R97, puzzle: Exclusion 4)	–	0.418 µM	0.571 µM	–
CCCUCGGGAGGAUAUGGGUGUUUUUACAUGAGGAUCACCCAUGUAGAGUAAUAUGUGGGUCCAGAAGGCCCAAGGG [-26, -24.7 kcal, 25% A] (Eterna round: R97, puzzle: Exclusion 5)	–	0.0869 µM	0.21 µM	–

Sequence	apparent KD of MS2 coat protein [1]	apparent KD of MS2 coat protein (input ligand: FMN 200 uM)	apparent KD of MS2 coat protein (input ligand: none)	further results
CCGAAAAGGAAGGAUAUGCUAGACGAAAGUCUAGCAGAAGGUCCUACAUGAGGAUCACCCAUGUGUCCUAUCGG [Mat - Exclusion 6 - Eli Mod - D39] (Eterna round: R97, puzzle: Exclusion 6)	–	0.0499 µM	0.0434 µM	–
CCGAAGUGGCGGUCCUAUGACAUGAGGAUCACCCAUGUACUUCGCCACGAGCUUUUUGCUCGUCUUAUAGUUCUCGG [Sensor v3, turn-off variant 1 (MOD of Ator)] (puzzle: Sensor v3, turn-off variant 1)	0.0324 µM	–	–	apparent KD of MS2 coat protein [2]: 0.435 µM; apparent KD of MS2 coat protein [3]: 0.504 µM
CCGCAAAUGCAGGAUAUCGUAUCGGAUACGAUACGAGAAGGGCGAACAUGAGGAUCACCCAUGUGUCCUAGCGG [Fiskers Ex 6 - 40] (puzzle: Exclusion 6)	0.0403 µM	–	–	apparent KD of MS2 coat protein [2]: 0.0347 µM; apparent KD of MS2 coat protein [3]: 0.0516 µM
CCGCAAAUGGAGGAUAUCGUAUCGGAUACGAUACGAGAAGGCUAUACAUGAGGAUCACCCAUGUGUCCUAGCGG [Fiskers Ex 6 - 46] (puzzle: Exclusion 6)	0.0114 µM	–	–	–
CCGCAGCGGUAGGAUAUUAUGACGUCAUGGGCAUAAGAAGGACCGACAUGAGGAUCACCCAUGUUGGGUGCCCG [EX6 C.24] (Eterna round: R97, puzzle: Exclusion 6)	–	0.0337 µM	0.0217 µM	–
CCGCAUAUGCAGGAUAUCGUAUCGGAAACGAUACGAGAAGGGUAAACAUGAGGAUCACCCAUGUUCCUUAACGG [Fiskers Ex 6 - 28] (puzzle: Exclusion 6)	0.0146 µM	–	–	–
CCGCGCCGGCGAGGAUAUUAGAAAGGAAGUGUAUAAGAAGGCGCCAUGCGCGAACAUGAGGAUCACCCAUGUGCCGCUCGUGUA [PowerStrip EXNG 1.24] (Eterna round: R96, puzzle: Exclusion NG 1)	–	0.0397 µM	0.0231 µM	apparent KD of MS2 coat protein [4]: 0.0154 µM
CCGCUCCGUGUAGGAUAUCGGCGUACCCUGCGCCGAGAAGGACAUGAGGAUCACCCAUGUAUGUUAUUAUCACGCGUGGCGCAC [Design 74] (Eterna round: R96, puzzle: Exclusion NG 1)	–	0.0198 µM	0.0202 µM	apparent KD of MS2 coat protein [4]: 0.0146 µM
CCGCUGCAAGGAUAUACUUGCGGUGGUGCUCGAGAUCUUUUACUUGAGGAUCACCCAAGUAGAAGGUGCAAAAC [jl-ex2.4.53 ViennaUCT mod] (Eterna round: R97, puzzle: Exclusion 2)	–	0.0262 µM	0.0179 µM	–
CCGGAAAGGAAGGAUAUGCUAGACGAUAGUCUAGCAGAAGGUCCUACAUGAGGAUCACCCAUGUGGCCUCCCGG [Mat - Exclusion 6 - Eli Mod - D47] (Eterna round: R97, puzzle: Exclusion 6)	–	0.68 µM	0.114 µM	–
CCGGAAAUACAGGAUAUAGGAGUCAAUAGACUCCUAGAAGGGUAUACAUGAGGAUCACCCAUGUGUCCUACCGG [Fiskers Ex 6 - 66] (Eterna round: R96, puzzle: Exclusion 6)	–	0.0399 µM	0.0277 µM	apparent KD of MS2 coat protein [4]: 0.0233 µM
CCGGAAAUACAGGAUAUAGGAGUCAAUAGACUCCUAGAAGGGUAUACAUGAGGAUCACCCAUGUGUCCUACCGG [Fiskers Ex 6 - 66] (puzzle: Exclusion 6)	0.0251 µM	–	–	–
CCGGAAAUAGAGGAUAUAGGAGUCGAUAGACUCCUAGAAGGCUAUACAUGAGGAUCACCCAUGUGUCCUACCGG [Fiskers Ex 6 - 65] (puzzle: Exclusion 6)	0.0166 µM	–	–	–
CCGGAUAUGCAGGAUAUCGAAUCGGAAACGAUUCGAGAAGGGUAUACAUGAGGAUCACCCAUGUGUCCUACCGG [Mat - Exclusion 6 - Eli Mod - D87] (puzzle: Exclusion 6)	0.0194 µM	–	–	–
CCGGAUAUGCAGGAUAUCGUAACGGAAACGUUACGAGAAGGGUAUACAUGAGGAUCACCCAUGUGUCCUACCGG [Mat - Exclusion 6 - Eli Mod - D86] (puzzle: Exclusion 6)	0.0211 µM	–	–	–
CCGGCUGCUGUGAGGAUAUGCCUGCGCGCCCGCGGGCAGAAGGCACAUGAGGAUCACCCAUGUCCUGCGGUCCC [salish99_bmx4_r4_119] (Eterna round: R97, puzzle: Brourd's mod of Exclusion 4)	–	0.0452 µM	0.0182 µM	–
